In patent US20200277360A1 (UNIVERSITY OF MANCHESTER, published 2020):

B1: Complement Factor I (protein)
chain 1: KVTYTSQEDLVEKKCLAKKYTHLSCDKVFCQPWQRCIEGTCVCKLPYQCPKNGTAVCATNRRSFPTYCQQKSLECLHPGTKFLNNGTCTAEGKFSVSLKHGNTDSEGIVEVKLVDQDKTMFICKSSWSMREANVACLDLGFQQGADTQRRFKLSDLSINSTECLHVHCRGLETSLAECTFTKRRTMGYQDFADVVCYTQKADSPMDDFFQCVNGKYISQMKACDGINDCGDQSDELCCKACQGKGFHCKSGVCIPSQYQCNGEVDCITGEDEVGCAGFASVTQEETEILTADMDAERRRIKSLLPKLSCGVKNRMHI
chain 2: IVGGKRAQLGDLPWQVAIKDASGITCGGIYIGGCWILTAAHCLRASKTHRYQIWTTVVDWIHPDLKRIVIEYVDRIIFHENYNAGTYQNDIALIEMKKDGNKKDCELPRSIPACVPWSPYLFQPNDTCIVSGWGREKDNERVFSLQWGEVKLISNCSKFYGNRFYEKEMECAGTYDGSIDACKGDSGGPLVCMDANNVTYVWGVVSWGENCGKPEFPGVYTKVANYFDWISYHVGRPFISQYNV
B2: Complement Factor H (other)
chain: EDCNELPPRRNTEILTGSWSDQTYPEGTQAIYKCRPGYRSLGNVIMVCRKGEWVALNPLRKCQKRPCGHPGDTPFGTFTLTGGNVFEYGVKAVYTCNEGYQLLGEINYRECDTDGWTNDIPICEVVKCLPVTAPENGKIVSSAMEPDREYHFGQAVRFVCNSGYKIEGDEEMHCSDDGFWSKEKPKCVEISCKSPDVINGSPISQKIIYKENERFQYKCNMGYEYSERGDAVCTESGWRPLPSCEEKSCDNPYIPNGDYSPLRIKHRTGDEITYQCRNGFYPATRGNTAKCTSTGWIPAPRCTLKPCDYPDIKHGGLYHENMRRPYFPVAVGKYYSYYCDEHFETPSGSYWDHIHCTQDGWSPAVPCLRKCYFPYLENGYNQNYGRKFVQGKSIDVACHPGYALPKAQTTVTCMENGWSPTPRCIRVKTCSKSSIDIENGFISESQYTYALKEKAKYQCKLGYVTADGETSGSITCGKDGWSAQPTCIKSCDIPVFMNARTKNDFTWFKLNDTLDYECHDGYESNTGSTTGSIVCGYNGWSDLPICYERECELPKIDVHLVPDRKKDQYKVGEVLKFSCKPGFTIVGPNSVQCYHFGLSPDLPICKEQVQSCGPPPELLNGNVKEKTKEEYGHSEVVEYYCNPRFLMKGPNKIQCVDGEWTTLPVCIVEESTCGDIPELEHGWAQLSSPPYYYGDSVEFNCSESFTMIGHRSITCIHGVWTQLPQCVAIDKLKKCKSSNLIILEEHLKNKKEFDHNSNIRYRCRGKEGWIHTVCINGRWDPEVNCSMAQIQLCPPPPQIPNSHNMTTTLNYRDGEKVSVLCQENYLIQEGEEITCKDGRWQSIPLCVEKIPCSQPPQIEHGTINSSRSSQESYAHGTKLSYTCEGGFRISEENETTCYMGKWSSPPQCEGLPCKSPPEISHGVVAHMSDSYQYGEEVTYKCFEGFGIDGPAIAKCLGEKWSHPPSCIKTDCLSLPSFENAIPMGEKKDVYKAGEQVTYTCATYYKMDGASNVTCINSRWTGRPTCRDTSCVNPPTVQNAYIVSRQMSKYPSGERVRYQCRSPYEMFGDEEVMCLNGNWTEPPQCKDSTGKCGPPPPIDNGDITSFPLSVYAPASSVEYQCQNLYQLEGNKRITCRNGQWSEPPKCLHPCVISREIMENYNIALRWTAKQKLYSRTGESVEFVCKRGYRLSSRSHTLRTTCWDGKLEYPTCAKR
notes: Positive control in the BLI assay; also called FH
B3: Complement Factor H isoform FHL-1 (other)
chain: EDCNELPPRRNTEILTGSWSDQTYPEGTQAIYKCRPGYRSLGNVIMVCRKGEWVALNPLRKCQKRPCGHPGDTPFGTFTLTGGNVFEYGVKAVYTCNEGYQLLGEINYRECDTDGWTNDIPICEVVKCLPVTAPENGKIVSSAMEPDREYHFGQAVRFVCNSGYKIEGDEEMHCSDDGFWSKEKPKCVEISCKSPDVINGSPISQKIIYKENERFQYKCNMGYEYSERGDAVCTESGWRPLPSCEEKSCDNPYIPNGDYSPLRIKHRTGDEITYQCRNGFYPATRGNTAKCTSTGWIPAPRCTLKPCDYPDIKHGGLYHENMRRPYFPVAVGKYYSYYCDEHFETPSGSYWDHIHCTQDGWSPAVPCLRKCYFPYLENGYNQNYGRKFVQGKSIDVACHPGYALPKAQTTVTCMENGWSPTPRCIRVSFTL
notes: Positive control in the BLI assay; also called factor H-like protein 1
B4: glycosylated chimeric FH-FI polypeptide (other)
chain: GSSGEDCNELPPRRNTEILTGSWSDQTYPEGTQAIYKCRPGYRSLGNIIMVCRKGEWVALNPLRKCQKRPCGHPGDTPFGTFTLTGGNVFEYGVKAVYTCNEGYQLLGEINYRECDTDGWTNDIPICEVVKCLPVTAPENGKIVSSAMEPDREYHFGQAVRFVCNSGYKIEGDEEMHCSDDGFWSKEKPKCVEISCKSPDVINGSPISQKIIYKENERFQYKCNMGYEYSERGDAVCTESGWRPLPSCEEGGGGSRGGGGSGGGGSIVGGKRAQLGDLPWQVAIKDASGITCGGIYIGGCWILTAAHCLRASKTHRYQIWTTVVDWIHPDLKRIVIEYVDRIIFHENYNAGTYQNDIALIEMKKDGNKKDCELPRSIPAAVPWSPYLFQPNDTCIVSGWGREKDNERVFSLQWGEVKLISNCSKFYGNRFYEKEMECAGTYDGSIDACKGDSGGPLVCMDANNVTYVWGVVSWGENCGKPEFPGVYTKVANYFDWISYHVGRPFISQYNV
modifications: N-glycans on the Complement Factor I proteolytic domain (glycosylated form)
notes: It consists of the Factor H co-factor region (CCPs 1-4), a G4S-R-(G4S)2 linker and the Factor I proteolytic domain; also called Chimera
B5: deglycosylated chimeric FH-FI polypeptide (other)
chain: B4 chain
modifications: N-glycans removed with PNGase F under non-denaturing conditions
notes: It is not the N464Q/N494Q/N536Q mutant; also called dFH-FI; dChimera

Experiments:
C3b [1] = biological target: C3b
C3b [2] = biological target: T1, C3b (human, UniProt P01024 23-667; P01024 749-1663); assay: Bio-Layer Interferometry
T1 construct: also called purified C3b
T1 sequence (P01024 23-667 limits assumed, chain 1 of 2): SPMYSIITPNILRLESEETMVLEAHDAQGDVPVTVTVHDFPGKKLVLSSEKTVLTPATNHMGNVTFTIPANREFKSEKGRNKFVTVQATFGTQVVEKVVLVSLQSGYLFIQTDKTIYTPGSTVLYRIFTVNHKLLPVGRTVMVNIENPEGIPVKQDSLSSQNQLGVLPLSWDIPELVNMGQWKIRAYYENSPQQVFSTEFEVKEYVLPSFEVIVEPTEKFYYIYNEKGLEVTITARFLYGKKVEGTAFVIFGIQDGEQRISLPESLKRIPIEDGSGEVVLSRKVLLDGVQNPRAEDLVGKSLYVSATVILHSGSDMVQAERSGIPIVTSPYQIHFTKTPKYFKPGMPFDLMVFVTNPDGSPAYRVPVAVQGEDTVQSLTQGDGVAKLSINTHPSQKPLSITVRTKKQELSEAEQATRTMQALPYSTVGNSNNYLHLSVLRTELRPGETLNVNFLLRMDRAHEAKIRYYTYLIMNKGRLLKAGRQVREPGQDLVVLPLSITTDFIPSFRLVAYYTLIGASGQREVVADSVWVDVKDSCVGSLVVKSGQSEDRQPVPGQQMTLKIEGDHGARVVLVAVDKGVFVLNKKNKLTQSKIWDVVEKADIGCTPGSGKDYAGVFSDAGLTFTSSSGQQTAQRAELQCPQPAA
T1 sequence (P01024 749-1663 limits assumed, chain 2 of 2): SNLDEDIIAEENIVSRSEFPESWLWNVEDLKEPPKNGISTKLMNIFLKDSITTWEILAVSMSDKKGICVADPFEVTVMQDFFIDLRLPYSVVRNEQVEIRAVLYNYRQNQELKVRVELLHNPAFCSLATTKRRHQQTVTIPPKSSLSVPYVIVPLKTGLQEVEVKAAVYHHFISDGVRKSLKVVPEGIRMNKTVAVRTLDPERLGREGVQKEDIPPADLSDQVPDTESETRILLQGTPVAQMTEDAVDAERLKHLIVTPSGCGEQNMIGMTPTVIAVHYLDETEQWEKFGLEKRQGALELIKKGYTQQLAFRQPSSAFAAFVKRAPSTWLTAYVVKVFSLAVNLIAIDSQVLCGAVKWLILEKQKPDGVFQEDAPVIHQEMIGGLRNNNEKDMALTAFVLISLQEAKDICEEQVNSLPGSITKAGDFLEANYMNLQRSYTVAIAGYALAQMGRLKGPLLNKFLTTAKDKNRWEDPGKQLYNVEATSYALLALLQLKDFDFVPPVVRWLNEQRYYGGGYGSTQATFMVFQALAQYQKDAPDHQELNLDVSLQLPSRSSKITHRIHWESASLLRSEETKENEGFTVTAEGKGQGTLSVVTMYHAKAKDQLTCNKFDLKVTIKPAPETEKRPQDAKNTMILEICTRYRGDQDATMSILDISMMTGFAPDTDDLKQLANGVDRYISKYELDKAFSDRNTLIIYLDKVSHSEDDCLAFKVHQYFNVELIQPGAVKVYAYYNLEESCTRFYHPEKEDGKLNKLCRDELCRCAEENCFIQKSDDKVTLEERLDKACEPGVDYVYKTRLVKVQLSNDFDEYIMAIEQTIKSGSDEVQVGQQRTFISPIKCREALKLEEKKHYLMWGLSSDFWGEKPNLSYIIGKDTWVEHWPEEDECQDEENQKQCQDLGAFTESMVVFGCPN

Binder | C3b alpha-chain breakdown (Instant Blue stained gel), with FHL-1 as co-factor (C3b [1]) | Kd (C3b [2])
B1 | It was possible to observe the breakdown of the α-chain of C3b in the presence of FHL-1 and FI | –
B2 | – | 583 nM
B3 | – | 1170 nM
B4 | – | 5.21 nM
B5 | – | 47.6 nM
